Data as given in the supplement of paper PMC6757056.
± gives the standard deviation of the averaged measurements.

B1: library; a variant is named by its letters at N, in order (parent)
chain: GCUGUCACCGGUGCUUGGUACGUUAUAUUCAGCCGGUCUGAUGAGUCUNNNNNNAGACGAAACAGC

What was measured:
(6R,S)-folinic acid [1] = variants of: B1; assay: FACS-Seq fitted mean relative fluorescence mCherry/BFP without ligand (log10 relative fluorescence); HEK293T overexpressing SLC46A1; higher = higher reporter protein expression; settings: without (6R,S)-folinic acid; ligand present: no
In short: (§1)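 An mCherry reporter containing the ribozyme switch and an EF1α-BFP marker were introduced by lentivirus into HEK293T libraries. Cells were enriched, incubated 48 h with or without ligand, sorted into 6 bins by mCherry/BFP, and bin genomic DNA was PCR-amplified, barcoded and sequenced on MiSeq. Fluorescence represents the normalized fitted normal mean of the bin counts. Fitting was done on log10(mCherry/BFP), scaling to five spiked-in control ribozymes.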

(6R,S)-folinic acid [2] = variants of: B1; assay: normalized RNA/DNA level without ligand (relative to sTRSVctl = 100) (log10 (% of sTRSVctl)); HEK293T overexpressing SLC46A1; higher = less ribozyme self-cleavage, higher mRNA level; settings: without (6R,S)-folinic acid; ligand present: no
In short: (§2)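 For each 6-well well, 4 µg of library plasmid encoding mCherry-linked ribozyme switches, or eGFP-linked ones in some ligand experiments, was transfected into HEK293T. Any ligand was added 1 h before transfection, and RNA was extracted with EDTA 72 h after it, then reverse-transcribed, amplified, barcoded and sequenced. RNA level was obtained by dividing RNA reads by DNA reads, normalizing to a spiked-in non-cleaving sequence or to the top sequences, then scaling and log-transforming. The top set was 25 sequences, scaling was ×100 with log10, and ≥100 DNA reads were required.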

(6R,S)-folinic acid [3] = variants of: B1; assay: FACS-Seq fitted mean relative fluorescence mCherry/BFP with ligand (log10 relative fluorescence); HEK293T overexpressing SLC46A1; ligand concentration (+) FACS-Seq: 6 mM; higher = higher reporter protein expression; settings: with (6R,S)-folinic acid; ligand present: yes
In short: as §1

(6R,S)-folinic acid [4] = variants of: B1; assay: normalized RNA/DNA level with ligand (relative to sTRSVctl = 100) (log10 (% of sTRSVctl)); HEK293T overexpressing SLC46A1; ligand concentration (+) RNA-Seq: 6 mM; higher = less ribozyme self-cleavage, higher mRNA level; settings: with (6R,S)-folinic acid; ligand present: yes
In short: as §2

Variant | FACS-Seq fitted mean (log10) ((6R,S)-folinic acid [1]) | normalized RNA/DNA level without ligand (log10) ((6R,S)-folinic acid [2]) | FACS-Seq fitted mean (log10) ((6R,S)-folinic acid [3]) | normalized RNA/DNA level with ligand (log10) ((6R,S)-folinic acid [4])
CGGGAC | -0.0861 ± 0.029 | 2.015 ± 0.0095 | -0.418 ± 0.079 | 2.02 ± 0.032
UGCUGG | 0.145 ± 0.014 | 1.85 ± 0.025 | 0.325 ± 0.18 | 2.02 ± 0.065
UGCUGA | 0.285 ± 0.21 | 2.02 ± 0.024 | 0.321 ± 0.12 | 2.05 ± 0.043
AGUAAA | 0.22 ± 0.14 | 1.954 ± 0.013 | 0.344 ± 0.14 | 1.98 ± 0.041
UGGUGA | 0.399 ± 0.049 | 1.881 ± 0.0069 | 0.443 ± 0.061 | 2.014 ± 0.0098
UGGUGG | 0.464 ± 0.054 | 1.736 ± 0.014 | 0.742 ± 0.064 | 1.96 ± 0.031
UGGUGU | 0.386 ± 0.1 | 1.933 ± 0.014 | 0.292 ± 0.034 | 2.01 ± 0.048
GGGAUG | 0.385 ± 0.017 | 1.974 ± 0.017 | 0.354 ± 0.025 | 2.04 ± 0.028
UGGCCA | 0.74 ± 0.1 | 2.04 ± 0.014 | 0.432 ± 0.081 | 2.057 ± 0.014
AGGGAC | -0.124 ± 0.15 | 1.972 ± 0.011 | 0.0745 ± 0.15 | 1.994 ± 0.01
AGGGAG | 0.271 ± 0.18 | 1.8747 ± 0.0018 | 0.349 ± 0.099 | 1.99 ± 0.046
UGGGUG | -0.154 ± 0.034 | 1.687 ± 0.0083 | 0.261 ± 0.016 | 1.95 ± 0.057
UGAUCG | 0.0489 ± 0.16 | 1.84 ± 0.021 | 0.0432 ± 0.082 | 1.992 ± 0.016
AGGCUC | 0.131 ± 0.13 | 2.06 ± 0.041 | -0.123 ± 0.11 | 2.01 ± 0.067
AGGCUA | 0.50616 ± 0.00017 | 2.041 ± 0.0053 | 0.407 ± 0.33 | 2.06 ± 0.037
UGGGAG | -0.0508 ± 0.0099 | 1.6 ± 0.025 | 0.331 ± 0.024 | 1.93 ± 0.078
UGGGAU | 0.3975 ± 0.0017 | 1.86 ± 0.022 | 0.547 ± 0.094 | 2 ± 0.046
UGCGUG | -0.00857 ± 0.093 | 1.6768 ± 0.0013 | 0.36 ± 0.1 | 1.95 ± 0.045

Variant | FACS-Seq fitted mean (log10) ((6R,S)-folinic acid [1]) | normalized RNA/DNA level without ligand (log10) ((6R,S)-folinic acid [2]) | FACS-Seq fitted mean (log10) ((6R,S)-folinic acid [3]) | normalized RNA/DNA level with ligand (log10) ((6R,S)-folinic acid [4])
UGCGGG | -0.0146 ± 0.0024 | 1.788 ± 0.011 | 0.675 ± 0.21 | 1.99 ± 0.043
UGGUAC | -0.0637 ± 0.16 | 1.994 ± 0.013 | -0.0596 ± 0.18 | 1.99 ± 0.039
UGGUAA | 0.244 ± 0.12 | 1.878 ± 0.01 | 0.0329 ± 0.18 | 1.95 ± 0.02
UGGUAU | 0.259 ± 0.18 | 1.926 ± 0.0022 | 0.274 ± 0.046 | 1.99 ± 0.015
UGGUAG | 0.0552 ± 0.19 | 1.5837 ± 9.7e-05 | 0.505 ± 0.61 | 1.935 ± 0.017
UGGUUG | 0.266 ± 0.011 | 1.829 ± 0.014 | 0.626 ± 0.09 | 1.98 ± 0.015
GGGCAU | 0.273 ± 0.12 | 2.045 ± 0.01 | 0.0697 ± 0.059 | 2.054 ± 0.0062
CGCUGC | 0.0944 ± 0.13 | 2.091 ± 0.012 | -0.0623 ± 0.071 | 2.0496 ± 0.0017
UGUAAG | 0.295 ± 0.0061 | 1.666 ± 0.0027 | 0.624 ± 0.062 | 1.94 ± 0.033
UGUAAA | 0.596 ± 0.02 | 1.924 ± 0.0087 | 0.761 ± 0.19 | 1.993 ± 0.0085
UGUAAU | 0.41 ± 0.068 | 1.886 ± 0.0076 | 0.35 ± 0.072 | 1.994 ± 0.0024
CGGCAU | 0.32 ± 0.03 | 2.011 ± 0.0083 | 0.52 ± 0.17 | 2.019 ± 0.02
GGGAAG | 0.485 ± 0.082 | 1.955 ± 0.015 | 0.402 ± 0.061 | 2.04 ± 0.027
CGGUAA | 0.149 ± 0.092 | 1.954 ± 0.014 | 0.184 ± 0.083 | 1.993 ± 0.013
UGCCGG | 0.22 ± 0.012 | 1.92 ± 0.011 | 0.707 ± 0.05 | 2.006 ± 0.018
AGCACU | 0.282 ± 0.032 | 2.02 ± 0.025 | 0.113 ± 0.16 | 2 ± 0.028
GGCACU | -0.00197 ± 0.025 | 2.08 ± 0.04 | -0.0531 ± 0.17 | 2.02 ± 0.036
GGCACC | 0.275 ± 0.084 | 2.018 ± 0.0066 | -0.0119 ± 0.33 | 2.017 ± 0.0025
